Four molecules from patent publication US20230094162A1 (MacroGenics, published 2023) can be followed below.

Where two headings read alike, the source gives them in different places.

In assay [1] the target is T1, PD-L1 expressed on the cell surface (CHO/PD-L1 cells) (UniProt Q9NZQ7 19-290). The assay is described as follows: cell-based or functional assay.
Assay [2] concerns the target T1, PD-L1 expressed on the cell surface …. The assay is described as follows: cell-based or functional assay. This is another data set of the same source.
For assay [3], the target named is T2, CD137 expressed on the cell surface (CHO/CD137 cells) (UniProt Q07011 24-255, limits assumed).
T2 construct: whole, on cells; also called cell surface CD137; Jurkat-NF-κB-Luc reporter cells overexpressing CD137
T2 sequence (Q07011 24-255 limits assumed): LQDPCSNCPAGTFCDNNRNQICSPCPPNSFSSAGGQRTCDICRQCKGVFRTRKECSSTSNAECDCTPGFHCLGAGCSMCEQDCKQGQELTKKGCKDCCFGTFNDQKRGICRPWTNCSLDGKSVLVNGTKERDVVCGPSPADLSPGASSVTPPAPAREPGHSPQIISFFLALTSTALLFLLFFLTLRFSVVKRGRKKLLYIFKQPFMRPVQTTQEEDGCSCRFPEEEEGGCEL
The assay is described as follows: flow cytometry (FACS) on CHO cells expressing CD137, MFI.

The target in assay [4] is T1, PD-L1 expressed on the cell surface …. Kind of assay: cell-based or functional assay. This is another data set of the same source.
Assay [5] shares this target. Kind of assay: cell-based or functional assay. This is another data set of the same source.
The target in assay [6] is T2, CD137 expressed on the cell surface …. The assay is described as follows: flow cytometry (FACS) on CHO cells expressing CD137, MFI. This is another data set of the same source.
For assay [7], the target named is T1, PD-L1 expressed on the cell surface …. Kind of assay: flow cytometry (FACS) on CHO cells expressing PD-L1, MFI. As to the method:
(§1) FACS analysis to evaluate the test articles for binding to cell surface PD-L1 was performed essentially as follows: 100 μL of CHO cells expressing PD-L1 (CHO/PD-L1) (1.0×10⁵ to 1.0×10⁶ cells/well) and 100 μL of serially diluted test article was added to each well of microtiter assay plate(s), mixed and incubated at RT for about 30 min. The cells were washed with FACS Buffer and secondary antibody (goat anti-human-FITC, PE, or APC) was then added to each well, after which, the components were mixed and the wells were incubated at RT for about 30 min. Cells were washed and resuspended in 250 μL FACS Buffer and analyzed by flow cytometry (BD LSR Fortessa or FACSCanto II) for cell events collection. Data analysis were performed via FloJo v10.
Test articles were used at 10 μg/mL and five-fold serial dilutions for the FACS analysis and at 50 μg/mL and five-fold serial dilutions for the PD-L1 reporter assay.

For assay [8] the target is unchanged. The assay is described as above. The method, then: as §1
This is another data set of the same source.

In assay [9] the target is T2, CD137 expressed on the cell surface …. Kind of assay: flow cytometry on CHO/CD137 cells (Surface Binding). As to the method:
FACS analysis to evaluate the test articles for binding to cell surface CD137 was performed essentially as follows: 100 μL of CHO cells expressing CD137 (CHO/CD137) (1.0×10⁵ to 1×10⁶ cells/well) and 100 μL of serially diluted test article or control was added to each well of microtiter assay plate(s), mixed and incubated at RT for about 30 min. The cells were washed with FACS Buffer and secondary antibody (goat anti-human-APC, PE, or FITC) was then added to each well (1:1000), after which, the components were mixed and the wells were incubated at RT for about 30 min. Cells were washed and resuspended in 250 μL FACS Buffer and analyzed by flow cytometry (BD LSR Fortessa or FACSCanto II) for cell events collection. Data analysis were performed via FloJo v10.

Assay [10] deals with T3, His-tagged soluble human CD137 fusion protein (huCD137) (human, UniProt Q07011 24-186).
T3 construct: extracellular domain; The ELISA method allows a His or a human Fc fusion; also called shCD137 His; huCD137-His; not shown: His tag
T3 sequence (Q07011 24-186): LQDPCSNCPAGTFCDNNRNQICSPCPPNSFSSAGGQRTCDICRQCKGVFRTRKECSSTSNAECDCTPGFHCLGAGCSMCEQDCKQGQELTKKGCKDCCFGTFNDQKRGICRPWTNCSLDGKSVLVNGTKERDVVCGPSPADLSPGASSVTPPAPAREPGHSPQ
The assay is described as follows: ELISA, plate-coated soluble human CD137, hybridoma supernatant. The method, then:
(§2) ELISA assays to evaluate the test articles for CD137 binding were performed essentially as follows: flat bottom maxisorb 96-well plates were coated with soluble human or cynomolgus monkey CD137 (the extracellular domain of human or cynomolgus monkey CD137 fused to a His tag (shCD137 His or scyCD137 His) or to a human Fc Region (shCD137 hFc or scyCD137 hFc)), each at 0.5 or 1 μg/mL. The plates were washed, blocked with PBS buffer containing 0.5% bovine serum albumin and 0.1% Tween20, and incubated with a test article (e.g., cell supernatants or purified mAb). For the hybridoma supernatants anti-CD137 antibody was utilized at 1.0 μg/mL and six three-fold serial dilutions. The amount of test article binding to the immobilized CD137 (human or cynomolgus monkey) was assessed using a goat anti-mouse IgG-HRP secondary antibody. All samples were analyzed on a plate reader (Victor 2 Wallac, Perkin Elmer) and EC50 values were calculated from dose-response curves by nonlinear regression analysis.

For assay [11], the target named is T4, soluble cynomolgus monkey CD137 (cyCD137) (cynomolgus monkey, UniProt A9YYE7 24-186).
T4 construct: extracellular domain; also called scyCD137 His; scyCD137 hFc; not shown: His tag or human Fc Region
T4 sequence (A9YYE7 entry or part of it): as the sequence (Q07011 24-186) above, with P4L, N19S, R50K, T66I, P67S, F69Y, G75E, V149A counted along it
Kind of assay: ELISA, plate-coated soluble cynomolgus CD137, hybridoma supernatant. As to the method:
as §2

Assay [12] deals with T3, His-tagged soluble human CD137 fusion …. The assay is described as follows: BIACORE SPR, antibody captured on anti-human Fc, soluble CD137 His as analyte, 1:1 model. An excerpt: The binding kinetics of the anti-CD137 antibodies (having human Fc regions) were investigated using BIACORE™ SPR analysis. The anti-CD137 antibodies were captured on a Fab′2 goat-anti-human Fc surface.

Assay [13] shares this target. Kind of assay: ELISA, plate-coated soluble human CD137.
Assay [14] concerns the target T4, soluble cynomolgus monkey CD137 …. The assay is described as follows: ELISA, plate-coated soluble cynomolgus CD137.

T1 sequence (Q9NZQ7 19-290): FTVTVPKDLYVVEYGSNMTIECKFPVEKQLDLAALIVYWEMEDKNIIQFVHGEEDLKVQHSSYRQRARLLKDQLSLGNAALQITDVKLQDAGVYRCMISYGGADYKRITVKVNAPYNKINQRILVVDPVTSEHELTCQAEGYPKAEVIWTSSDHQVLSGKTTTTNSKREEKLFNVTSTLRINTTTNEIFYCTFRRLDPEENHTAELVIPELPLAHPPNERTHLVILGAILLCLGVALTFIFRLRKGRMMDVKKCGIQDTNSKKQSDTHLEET

B1: TRIDENT-A4 (bispecific antibody, human IgG1, kappa, L234A L235A)
chain 1: EIVMTQSPATLSLTPGERATLSCRASQSVSSNYLSWFQQIPGQAPRLLIYGASTRATGIPARFSGSGSGTDFTLTISSLQPEDFAVYYCQQDYDLPWTFGQGTKVEIKGGGSGGGGQVQLQESGPGLVKPSETLSLTCTVSGGSISSYYWSWIRQPPGKGLEWIGRIYTSGSTNYNPSLKSRVTMSVDTSKNQFSLKLSSVTAADTAVYYCARDGWYDEDYNYYGMDVWGQGTTVTVSSGGCGGGEVAALEKEVAALEKEVAALEKEVAALEKGGGDKTHTCPPCPAPEAAGGPSVFLFPPKPKDTLYITREPEVTCVVVDVSHEDPEVKFNWYVDGVEVHNAKTKPREEQYNSTYRVVSVLTVLHQDWLNGKEYKCKVSNKALPAPIEKTISKAKGQPREPQVYTLPPSREEMTKNQVSLWCLVKGFYPSDIAVEWESNGQPENNYKTTPPVLDSDGSFFLYSKLTVDKSRWQQGNVFSCSVMHEALHNHYTQKSLSLSPGK
chain 2: EIVMTQSPATLSLTPGERATLSCRASQSVSSNYLSWFQQIPGQAPRLLIYGASTRATGIPARFSGSGSGTDFTLTISSLQPEDFAVYYCQQDYDLPWTFGQGTKVEIKGGGSGGGGQVQLQESGPGLVKPSETLSLTCTVSGGSISSYYWSWIRQPPGKGLEWIGRIYTSGSTNYNPSLKSRVTMSVDTSKNQFSLKLSSVTAADTAVYYCARDGWYDEDYNYYGMDVWGQGTTVTVSSGGCGGGKVAALKEKVAALKEKVAALKEKVAALKE
heavy: EVQLVESGGGLVQPGGSLRLSCAASGFTFSSYTMSWVRQAPGKGLEWVAYISIKGGTTYYPDTVKGRFTISRDNAKNSLYLQMNSLRAEDTAVYYCARQGLPYYGDYWGQGTLVTVSSASTKGPSVFPLAPSSKSTSGGTAALGCLVKDYFPEPVTVSWNSGALTSGVHTFPAVLQSSGLYSLSSVVTVPSSSLGTQTYICNVNHKPSNTKVDKRVEPKSCDKTHTCPPCPAPEAAGGPSVFLFPPKPKDTLYITREPEVTCVVVDVSHEDPEVKFNWYVDGVEVHNAKTKPREEQYNSTYRVVSVLTVLHQDWLNGKEYKCKVSNKALPAPIEKTISKAKGQPREPQVYTLPPSREEMTKNQVSLSCAVKGFYPSDIAVEWESNGQPENNYKTTPPVLDSDGSFFLVSKLTVDKSRWQQGNVFSCSVMHEALHNRYTQKSLSLSPGK
light: DIQMTQSPSSLSASVGDRVTITCKASQDVNEAVAWYQQKPGKAPKLLIYWASTRHTGVPSRFSGSGSGTDFTLTISSLQPEDFATYYCQQHYNTPLTFGQGTKVEIKRTVAAPSVFIFPPSDEQLKSGTASVVCLLNNFYPREAKVQWKVDNALQSGNSQESVTEQDSKDSTYSLSSTLTLSKADYEKHKVYACEVTHQGLSSPVTKSFNRGEC
notes: Trivalent; two CD137 MAB-6(1.1) sites, one hPD-L1 MAB-2(3.2) site
As for B1, the “EC50 (read off the curve)” value in assay [1] is around 0.2 µg/mL; in assay [2], around 0.4 µg/mL; in assay [3], around 0.01 µg/mL.

B2: DART-A (bispecific antibody, IgG1)
chain 1: DIQMTQSPSSLSASVGDRVTITCKASQDVNTAVAWYQQKPGKAPKLLIYWASTRHTGVPSRFSGSGSGTDFTLTISSLQPEDFATYYCQQHYNTPLTFGQGTKVEIKGGGSGGGGQVQLQESGPGLVKPSETLSLTCTVSGGSISSYYWSWIRQPPGKGLEWIGRIYTSGSTNYNPSLKSRVTMSVDTSKNQFSLKLSSVTAADTAVYYCARDGWYDEDYNYYGMDVWGQGTTVTVSSGGCGGGEVAACEKEVAALEKEVAALEKEVAALEKLEPKSADKTHTCPPCPAPEAAGGPSVFLFPPKPKDTLYITREPEVTCVVVDVSHEDPEVKFNWYVDGVEVHNAKTKPREEQYNSTYRVVSVLTVLHQDWLNGKEYKCKVSNKALPAPIEKTISKAKGQPREPQVYTLPPSREEMTKNQVSLTCLVKGFYPSDIAVEWESNGQPENNYKTTPPVLDSDGSFFLYSKLTVDKSRWQQGNVFSCSVMHEALHNHYTQKSLSLSPG
chain 2: EIVMTQSPATLSLTPGERATLSCRASQSVSSNYLSWFQQIPGQAPRLLIYGASTRATGIPARFSGSGSGTDFTLTISSLQPEDFAVYYCQQDYDLPWTFGQGTKVEIKGGGSGGGGEVQLVESGGGLVQPGGSLRLSCAASGFTFSSYTMSWVRQAPGKGLEWVAYISIGGGTTYYPDTVKGRFTISRDNAKNTLYLQMNSLKTEDTAVYYCARQGLPYYFDYWGQGTLVTVSSGGCGGGKVAACKEKVAALKEKVAALKEKVAALKE
notes: Tetravalent CD137 x PD-L1 Fc diabody; CD137 MAB-6(1.1) and hPD-L1 MAB-2(1.1); IgG1 (AA/YTE)
For B2, the “EC50 (read off the curve)” value in assay [4] was around 0.08 µg/mL; in [5] it was around 0.2 µg/mL; in assay [6] it was around 0.06 µg/mL; in assay [7] it was around 0.04 µg/mL; in assay [8], around 0.02 µg/mL.

B3: CD137 MAB-6 (1.1) (antibody, V domains shown)
VH: QVQLQESGPGLVKPSETLSLTCTVSGGSISSYYWSWIRQPPGKGLEWIGRIYTSGSTNYNPSLKSRVTMSVDTSKNQFSLKLSSVTAADTAVYYCARDGWYDEDYNYYGMDVWGQGTTVTVSS
VL: EIVMTQSPATLSLTPGERATLSCRASQSVSSNYLSWFQQIPGQAPRLLIYGASTRATGIPARFSGSGSGTDFTLTISSLQPEDFAVYYCQQDYDLPWTFGQGTKVEIK
notes: Fully human variable domains from a TRIANNI MOUSE hybridoma
B3 came in with an EC50 in [9] of 0.021 µg/mL. The concentration giving a half-maximal response (EC50) in [10] came to 0.038 µg/mL. Moreover, the half-maximal effective concentration (EC50) in assay [11] came out at 0.049 µg/mL. In [12], this molecule yielded a dissociation constant Kd of 16 nM, a dissociation rate constant (koff) of 0.0067 s⁻¹ and an on-rate constant (kon) of 420000 M⁻¹ s⁻¹.

B4: chCD137 MAB-3 (antibody, V domains shown)
VH: QVQLQQPGAELVRPGASVKLSCKASGYTFTSYWINWVKQRPGQGLEWIGNIYPSDSYTNYNQKFKDKATLTVDKSSSTAYMQLSSPTSEDSAVYYCTRDYGSSYSFDYWGQGTTLTVSS
VL: DIQMTQTTSSLSASLGDRVTISCRPSQDISNYLNWYQQKPDGTVKLLIYYTSRLRSGVPSRFSGSGSGTDYSLTISNLEQEDIATYFCQQGDTLPYTFGGGTKLEIK
Molecule B4 came in with a 50% effective concentration (EC50) in assay [13] of 0.034 µg/mL. The molecule further yielded a half-maximal effective concentration (EC50) in assay [14] of 0.044 µg/mL. The molecule also registered an EC50 in assay [9] of 0.01 µg/mL. In assay [12], the Kd stood at 38 nM, the dissociation rate constant (koff) was 0.025 s⁻¹ and the on-rate constant (kon) stood at 660000 M⁻¹ s⁻¹.
